Data published in patent US20190233494A1 (Sanofi, published 2019).
Starred links: 1 amine or outer side, 2 acyl side, 3 side chain; linkers in the order of their positions; H or OH if unused. Non-standard residues stand in square brackets, D forms with d. Groups on a side chain read outwards from the residue. *: point of attachment. TTDS = 4-[3-[2-[2-(3-aminopropoxy)ethoxy]ethoxy]propylamino]-4-oxo-butanoyl; Trp(5-F) = N[C@@H](Cc1c[nH]c2ccc(F)cc12)C(=O)O; Phe(4-F) = N[C@@H](Cc1ccc(F)cc1)C(=O)O; γGlu = O=C(O)[C@H](CCC(=O)[*:2])N[*:1]; Palmitoyl = CCCCCCCCCCCCCCCC(=O)*; αMeF = C[C@](N)(Cc1ccccc1)C(=O)O; Myristoyl = CCCCCCCCCCCCCC(=O)*; Cit = NC(=O)NCCC[C@H](N)C(=O)O; αMeK = C[C@](N)(CCCCN)C(=O)O; hLys = NCCCCC[C@H](N)C(=O)O; AEEA = NCCOCCOCC(=O)O; Aib = CC(C)(N)C(=O)O

T1: RXFP1 receptor (endogenous, on OVCAR5 cells) (UniProt Q9HBX9 1-757, limits assumed)
T1 sequence (looked up): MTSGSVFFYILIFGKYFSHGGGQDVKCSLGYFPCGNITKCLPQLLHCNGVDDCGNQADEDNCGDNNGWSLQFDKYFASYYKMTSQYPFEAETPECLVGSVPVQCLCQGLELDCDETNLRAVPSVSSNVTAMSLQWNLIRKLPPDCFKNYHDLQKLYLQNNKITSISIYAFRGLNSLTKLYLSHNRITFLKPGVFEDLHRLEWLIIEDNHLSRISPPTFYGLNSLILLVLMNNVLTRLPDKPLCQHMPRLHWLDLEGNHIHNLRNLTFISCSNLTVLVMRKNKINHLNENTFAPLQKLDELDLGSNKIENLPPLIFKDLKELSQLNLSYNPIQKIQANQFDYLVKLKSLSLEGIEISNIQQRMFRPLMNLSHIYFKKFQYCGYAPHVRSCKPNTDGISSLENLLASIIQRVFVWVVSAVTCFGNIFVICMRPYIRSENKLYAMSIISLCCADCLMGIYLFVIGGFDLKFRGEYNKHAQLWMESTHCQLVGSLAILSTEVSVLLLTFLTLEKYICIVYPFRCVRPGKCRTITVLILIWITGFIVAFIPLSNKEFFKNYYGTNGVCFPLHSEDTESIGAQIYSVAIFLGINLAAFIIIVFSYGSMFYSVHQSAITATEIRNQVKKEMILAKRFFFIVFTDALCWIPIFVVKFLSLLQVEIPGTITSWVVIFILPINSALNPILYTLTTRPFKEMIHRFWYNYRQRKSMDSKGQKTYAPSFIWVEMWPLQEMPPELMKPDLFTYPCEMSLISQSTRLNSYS

B1: peptide of SEQ ID NO: 94 (peptide)
peptide: Ac-LEGREKVRAK(Ac)I[Aib][Aib]EGK([TTDS-TTDS-TTDS-γGlu-γGlu-γGlu-Palmitoyl])STFVRRAK(Ac)-NH2
B2: peptide of SEQ ID NO: 12 (peptide)
peptide: Ac-LEGREKVRA[Cit]I[Aib][Aib]EGK([TTDS-TTDS-TTDS-γGlu-γGlu-γGlu-Palmitoyl])STFS[αMeK]RAK(Ac)-NH2
B3: peptide of SEQ ID NO: 15 (peptide)
peptide: Ac-LEGREKVRAK(Ac)I[Aib][Aib]EGK([TTDS-TTDS-TTDS-γGlu-γGlu-γGlu-Palmitoyl])STF[Aib]KRAK(Ac)-NH2
B4: peptide of SEQ ID NO: 82 (peptide)
peptide: Ac-LEGREKVR[Aib]K(Ac)I[Aib][Aib]EGK([TTDS-TTDS-TTDS-γGlu-γGlu-γGlu-Palmitoyl])STWS[Aib]RAK(Ac)-NH2
B5: peptide of SEQ ID NO: 87 (peptide)
peptide: Ac-LEGREKVRAK(Ac)I[Aib][Aib]EGK([TTDS-TTDS-TTDS-γGlu-γGlu-γGlu-Palmitoyl])STFSRRAK(Ac)-NH2
B6: peptide of SEQ ID NO: 95 (peptide)
peptide: Ac-LEGREKVRAK(Ac)I[Aib][Aib]EGK([TTDS-TTDS-TTDS-γGlu-γGlu-γGlu-Myristoyl])STFS[αMeK]RAK(Ac)-NH2
B7: peptide of SEQ ID NO: 84 (peptide)
peptide: Ac-LEGREKVRAK(Ac)I[Aib]IEGK([TTDS-TTDS-TTDS-γGlu-γGlu-γGlu-Palmitoyl])STFS[αMeK]RAK(Ac)-NH2
B8: peptide of SEQ ID NO: 85 (peptide)
peptide: Ac-LEGRERVR[Aib]K(Ac)I[Aib][Aib]EGK([TTDS-TTDS-TTDS-γGlu-γGlu-γGlu-Palmitoyl])STWS[Aib]RRK(Ac)-NH2
B9: peptide of SEQ ID NO: 16 (peptide)
peptide: Ac-LEGREKVRAK(Ac)I[Aib][Aib]EGK([TTDS-TTDS-γGlu-γGlu-γGlu-Palmitoyl])STFS[dK]RAK(Ac)-NH2
B10: peptide of SEQ ID NO: 92 (peptide)
peptide: Ac-LEGRERVRAK(Ac)I[Aib][Aib]EGK([TTDS-TTDS-TTDS-γGlu-γGlu-γGlu-Palmitoyl])ST[Trp(5-F)]S[Aib]RRK(Ac)-NH2
B11: peptide of SEQ ID NO: 86 (peptide)
peptide: Ac-[Aib]EGREKVRAK(Ac)I[Aib]IEGK([TTDS-TTDS-TTDS-γGlu-γGlu-γGlu-Palmitoyl])STFS[αMeK]RAK(Ac)-NH2
B12: peptide of SEQ ID NO: 9 (peptide)
peptide: Ac-LEGREKVRAK(Ac)I[Aib][Aib]EGK([TTDS-TTDS-γGlu-γGlu-Palmitoyl])STFS[αMeK]RAK(Ac)-NH2
B13: peptide of SEQ ID NO: 89 (peptide)
peptide: Ac-LEGREKVRAK(Ac)I[Aib][Aib]EGK([TTDS-TTDS-TTDS-γGlu-γGlu-γGlu-Palmitoyl])ST[αMeF]SRRAK(Ac)-NH2
B14: peptide of SEQ ID NO: 14 (peptide)
peptide: Ac-LEGREKVRAK(Ac)I[Aib][Aib]EGK([TTDS-TTDS-TTDS-γGlu-γGlu-γGlu-Palmitoyl])STF[dS]KRAK(Ac)-NH2
B15: peptide of SEQ ID NO: 17 (peptide)
peptide: Ac-LEGREKVRAK(Ac)I[Aib][Aib]EGK([TTDS-TTDS-γGlu-γGlu-γGlu-Palmitoyl])STWS[dK]RAK(Ac)-NH2
B16: peptide of SEQ ID NO: 10 (peptide)
peptide: Ac-LEGREKVRAK(Ac)I[Aib][Aib]EGK([TTDS-TTDS-γGlu-γGlu-γGlu-γGlu-Palmitoyl])STFS[αMeK]RAK(Ac)-NH2
B17: peptide of SEQ ID NO: 83 (peptide)
peptide: Ac-LEGREKVRAK(Ac)I[Aib][Aib]EGK([TTDS-TTDS-TTDS-γGlu-γGlu-γGlu-Palmitoyl])SKWS[Aib]RKK(Ac)-NH2
B18: peptide of SEQ ID NO: 13 (peptide)
peptide: Ac-LEGREKVRAK(Ac)I[Aib][Aib]EGK([TTDS-TTDS-TTDS-γGlu-γGlu-γGlu-Palmitoyl])STFSKRAK(Ac)-NH2
B19: peptide of SEQ ID NO: 93 (peptide)
peptide: Ac-LEGREKVRAK(Ac)I[Aib][Aib]EGK([TTDS-TTDS-TTDS-γGlu-γGlu-γGlu-Palmitoyl])STFTRRAK(Ac)-NH2
B20: peptide of SEQ ID NO: 11 (peptide)
peptide: Ac-LEGREKVRAK(Ac)I[Aib][Aib]EGK([TTDS-TTDS-TTDS-γGlu-γGlu-γGlu-Palmitoyl])STWS[αMeK]RAK(Ac)-NH2
B21: peptide of SEQ ID NO: 91 (peptide)
peptide: Ac-LEGRERVRAK(Ac)I[Aib][Aib]EGK([TTDS-TTDS-TTDS-γGlu-γGlu-γGlu-Palmitoyl])ST[Phe(4-F)]S[Aib]RRK(Ac)-NH2
B22: peptide of SEQ ID NO: 2 (peptide)
peptide: Ac-LEGREKVRAK(Ac)I[Aib][Aib]EGK([TTDS-TTDS-TTDS-γGlu-γGlu-γGlu-Palmitoyl])STFS[Aib]RAK(Ac)-NH2
B23: peptide of SEQ ID NO: 8 (peptide)
peptide: Ac-LEGREKVRAK(Ac)I[Aib][Aib]EGK([AEEA-AEEA-AEEA-AEEA-γGlu-γGlu-γGlu-Palmitoyl])STFS[αMeK]RAK(Ac)-NH2
SMILES: CCCCCCCCCCCCCCCC(=O)N[C@@H](CCC(=O)N[C@@H](CCC(=O)N[C@@H](CCC(=O)NCCOCCOCC(=O)NCCOCCOCC(=O)NCCOCCOCC(=O)NCCOCCOCC(=O)NCCCC[C@H](NC(=O)CNC(=O)[C@H](CCC(=O)O)NC(=O)C(C)(C)NC(=O)C(C)(C)NC(=O)[C@@H](NC(=O)[C@H](CCCCNC(C)=O)NC(=O)[C@H](C)NC(=O)[C@H](CCCNC(=N)N)NC(=O)[C@@H](NC(=O)[C@H](CCCCN)NC(=O)[C@H](CCC(=O)O)NC(=O)[C@H](CCCNC(=N)N)NC(=O)CNC(=O)[C@H](CCC(=O)O)NC(=O)[C@H](CC(C)C)NC(C)=O)C(C)C)[C@@H](C)CC)C(=O)N[C@@H](CO)C(=O)N[C@H](C(=O)N[C@@H](Cc1ccccc1)C(=O)N[C@@H](CO)C(=O)N[C@@](C)(CCCCN)C(=O)N[C@@H](CCCNC(=N)N)C(=O)N[C@@H](C)C(=O)N[C@@H](CCCCNC(C)=O)C(N)=O)[C@@H](C)O)C(=O)O)C(=O)O)C(=O)O
B24: peptide of SEQ ID NO: 96 (peptide)
peptide: Ac-LEGREKVRAK(Ac)I[Aib][Aib]EGK([TTDS-TTDS-TTDS-γGlu-γGlu-γGlu-Myristoyl])STFS[αMeK]RAK-NH2
B25: peptide of SEQ ID NO: 97 (peptide)
peptide: Ac-LEGREKVRAK(Ac)I[Aib][Aib]EGK([TTDS-TTDS-TTDS-γGlu-γGlu-γGlu-γGlu-Myristoyl])STFS[αMeK]RAK-NH2
B26: peptide of SEQ ID NO: 90 (peptide)
peptide: Ac-LEGREKVRAK(Ac)IA[Aib]EGK([TTDS-TTDS-TTDS-γGlu-γGlu-γGlu-Palmitoyl])STFS[αMeK]RAK(Ac)-NH2
B27: peptide of SEQ ID NO: 88 (peptide)
peptide: Ac-LEGREKVRAK(Ac)I[Aib][Aib]EGK([TTDS-TTDS-TTDS-γGlu-γGlu-γGlu-Palmitoyl])STFS[hLys]RAK(Ac)-NH2

These binders were tested against T1, RXFP1 receptor (endogenous, on OVCAR5 …) (assay: cell-based or functional assay).

Row | EC50 (nM), OVCAR 5 cells (cAMP) | EMax, OVCAR 5 cells (cAMP) | Binder
1 | 1.74 nM | 88% | B1
2 | 0.93 nM | 90% | B2
3 | 2.1 nM | 85% | B3
4 | 0.54 nM | 95% | B4
5 | 0.1 nM | 96% | B5
6 | 1.8 nM | 91% | B6
7 | 0.1 nM | 95% | B7
8 | 0.3 nM | 92% | B8
9 | 6.8 nM | 88% | B9
10 | 0.1 nM | 99% | B10
11 | 0.3 nM | 95% | B11
12 | 0.7 nM | 93% | B12
13 | 0.1 nM | 97% | B13
14 | 3.2 nM | 90% | B14
15 | 4.6 nM | 91% | B15
16 | 0.79 nM | 95% | B16
17 | 0.25 nM | 94% | B17
18 | 2.12 nM | 91% | B18
19 | 0.77 nM | 86% | B19
20 | 0.83 nM | 93% | B20
21 | 0.09 nM | 97% | B21
22 | 2.4 nM | 99% | B22
23 | 1.86 nM | 92% | B23
24 | 0.88 nM | 92% | B24
25 | 0.29 nM | 98% | B25
26 | 0.14 nM | 97% | B26
27 | 0.17 nM | 96% | B27
